Data on 1 molecule can be found in patent publication US20120148499A1.

Primed or numbered codes have the meaning given here. 5,6FAM″ = fluorescein-5(6)-carbonyl on the lysine (K(5,6FAM))

This assay addresses purified myelin basic protein (MBP). Briefly: peptide binding to MBP-crosslinked beads against control beads without MBP.

Molecule Ac-SHSTYTDWLNFWAWPGK(5,6FAM″)-NH2 [acetyl-…(5,6FAM)-amide] yielded a fold increase in binding to MBP crosslinked beads over control beads (no MBP) of 10 fold.
